Reference: the nanobody polyreactivity screen of Harvey et al. (2022)

Assay: yeast display, Sf9 membrane polyspecificity reagent, FACS + sequencing; frameworks hold sequencing errors
Procedure, shortened: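 Genes from sorted yeast were amplified by colony PCR, read by MiSeq 2 × 250 sequencing and filtered on CDR length. These cells carried a synthetic nanobody library in Saccharomyces cerevisiae BJ5465 and were sorted by FACS into low and high (top ~1%) gates on anti-HA and streptavidin fluorescence. Polyreactivity is labelled according to the gate of origin.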

Sequence	polyreactivity (PSR sort gate)
QVQLVESGGGLVQAGGSLRLSCAASGSTFLKYDMGWYRQAPGKERELVAAISWDGGSTYYADSVKGRFTISRDNAKNTVYLQMNSLKPEDTAVYYCNADYDVYLTIWYYYGEFDYWGQGTQVTVSS	low polyreactivity
QVQLVESGGGLVQAGGRLRLSCAASGFIFKYNAMGWSRQAPGKERELVAAISRGGRTYYADSVKGRFTISRDNAKNTVYLQMNSLKPEDTAVYYCAAVSHYPAGYDYWGQGTQVTVSS	high polyreactivity
QVQLVETVGCLVQAGGSLRLSSAASGRIFPYNAMGRYRQAPGKERELVAAIDWRDNTYYADSVKGRFTISRDNATNTVYLQMNSLIPEDTAVYDCNVDYTDYFLNKYDYWGQGTQVTVSS	low polyreactivity
QVQLVESAAGLVQAGGSLSLICAASGYIFATYAMGWYIQAPGTETELVAAITSGGITNYADSVKGRFTISRDNAKNTVYLQMNSLKPEDTAVYYCATGRRRYYFREYYYWGQGTQVTVSS	high polyreactivity
QVQLVESGGGLVQAGGSLRLSCAASGFIFPYYAMGWYRPAPGKERELVAAITSSGGSTYYADSVKGRFTISRDNAKNTVYLQMNSLKPEDTAVYYFNAYVRRTRVYDYWGQGTLVTVSS	high polyreactivity
QVQLVESGGGLVQAGGSLRLICAASGFTIGANTMGWYREAPGKERELVAAITSGGRTYYADSVKGRFTISRDNAKNTVYLQMNSLKPEDTAVYYCAAGRPRTIFQEYGSWGQGTQVTVSS	high polyreactivity
QVQLVESGGGLVQAGGSLRLSCAASGLIFAKYAMGWYRQAPGKERELVAGITSGGGTYYADSVKGRFTISRDNAKNTVYLQMNSLKPEDTAVYYCAVGREYFRWIRYDYDYWGQGTQVTVSS	low polyreactivity
QVQHVESGGGLVQAGVSLRLSCAASGFTFHRNAMGWSTQAPGKERELLAAITMKGGSSTYYADSVKGRFTISRDNAKNTVYLQMNSLKPEDTAVYYCARDSYSYTFSKNSDPAEYDYWGQGTQVTLSS	low polyreactivity
QVQLVESGGGLVQAGGSLRLSCAASGSTFDKYTMGWYRQAPGKERELVATISRSGTSTNYADSVKGRFTISRDNAKNTVYLQLNSLKPEDTAVYYCAAVMRWRDLFSEYYYWGQGTQVTVSS	high polyreactivity
QVQLVESGGRLVQAGGSLRLSFAACGSILRDNSMGWYRQAPGKEREFVADIRGSYDSTYYADSVKGRFTISRDNAKHTVYLQMNSRKREDTAVYYCNRVDAWQDYDYWGLGTQVTVSS	low polyreactivity
QVQLVESGGGLVQAGGSLRLSCAASGITFRYYTMGWYRQAPGKERELVAAITWSGSSTYYADSVKGRFTISRDNAKNTVYLQMNSLKPEDTAVYYCNAVPYDYLADYWGQGTQVTVST	low polyreactivity
QVQLVESGGGLVQAGGSLRLSCAATGFIFDSYAMGWYRQAPGKERELVAAISWSGGRTYYADSVKGRFTISRDNAKNTVYLQMNSLKPEDTAVYYCNVRTKLSTSYDYWGQGTQVTVSS	high polyreactivity
QVQLVESGGGLVQAGGSLRLSCAASGSTFDRYGMGWYRQAPGKERELVAAITWSVGSTYYADSVKGRFTISRDNAKNTVYLQMNSLKPEDTAVYYCNAGVLGVYTSYNGDDYWGQGTQVTVST	low polyreactivity
QVQLVESGGGLVQAGGSLRLSCAASGSTFVYYAMGWYRQAPGKERELVAAISYSGGRTYYADSVKGRFTISRDNAKNTVYLQMNSLKQEDTAVYYCAAAYVKFYGYSAEYDYWGQGTQVTVSS	low polyreactivity
QVQLVESGGGLVQAGCSLRLSCAASGFIILNYTMGLYRQAPGKERELVAAISNGSDRTYYADSVKGRFTISRDNAKNTVYLQMISLKTEDTAVYYCAKDRDFSSPPTESGFDYWGQGTQVNVSS	low polyreactivity
QVQLVESGTGLVQAGGSLRLSCADSGITFVFYSMGSYRQAPGKESELVATISYRGTSTYYADSVKGLFTISRDNAKNSVSLQMNSLKPEDTAVYYCAADTFIYYKTGYGYWGQGTQVTVSS	low polyreactivity

Sequence	polyreactivity (PSR sort gate)
QVQLVESGGGLVQAGGSLRLSCAASGRTFPGYAMGWYRQAPGKERELVAGISYRGGSTYYADSVKGRITISRDIAKNSVYLQMISLKPEDTAVYFCARDYSRHKGDLWGQGTQVTVSS	low polyreactivity
QVQLVESGGGLVQAGGSLRLSCAASGRIFYAYAMGWYRQAPGKERELVAAITARGGSTYYADSVKGRFTISRDNAKTTVYLQMNSLKPEDTAVYYCAKDTLLETGYEYWGQGTQVTVSS	high polyreactivity
QVQLVESGGGLVQAGGSLRLSCAASGSTRRYVMAWYRQAPGKEMELVAAISYSGGSTYYADSVKGRFTISRDNAKNTVYLQMNSLKPEETAVYYCAADGYSGQYGGHMGYWGQGTQVTVSS	high polyreactivity
QVQLVESGGGLVQSGGSLRLSCAYSGRTFYRNTMGWYRHAPGKEREFVAAISATAGRTYYADSVKWRFTISRDNAKNTVYLQMNSLKPEDTAVYYCAAVPLRNRWANSWPALDYWGQGTLVTVSS	high polyreactivity
QVQLVESGGGLVQAGGSLRLSCAASGYIFKGNVMGWYRQAPGKERELVAAISSSGGRTYYADSVKWRFTISRDNAKNNVYLQMYSLKPEDTAVYYCNTKHRTKPTGPVDYWGQGTQVTVSS	high polyreactivity
QVQLVESGGGLVQAGGSLRLSCAASGRIFYSNDMGWYRQAPGKERELVAGINYDGGSTYYADSVKGRFTISRDNPKNTVYLQINSLKPEDTAVNYCNVRQVGWFNTPGDYWGQGTQVTVSS	low polyreactivity
QVQLVESGGGLVQAGGSLRLSCAASGSTFSTNAMGWYRQAPGKERDLVAAISRSGGSTYYADTVKRRFTISRDIAKITVYLQMNSLKPEVSAVYYCARYSYRGTNVSYDYWGQGTQVTVSS	high polyreactivity
QVQLVESGGGLVQAGGSLRLSCASSGGIFYSYDMGWYRQAPGKERELVAAITWIGGSTYYADSVKGRFTISRDNAKNTVYFQMNSLKPEDTAVYYCAAEILWGGYDYWGQGTQVSVSS	low polyreactivity
QVQLVESGGGLVQAGGSLRLSCAASGRTFRNNAMGWYRQAPGKERELVAAISRTGGRTYYADSVKGRFTISRDNAKNTVYLQMNSLKPEDTAVYYCNAAYLVREYDYWGQGTQVTVSS	high polyreactivity
QVQLVESGGGLVQAGGSLRLSSAASGGIFWYYTMGWYRQAPGKERELVAAISWSGGRTYYADSVKGRFTISRDNAKNTVYLQMNSLKPEDTAVYYCAATFRGVLGWYHYEYWGQGTQVTVSS	high polyreactivity
QVQLVESGGGLVQAGGSLRLSCAASGRTFKYYAMGWYRQAPGKERELVAAISLSSGRTYYADSVKGRFTISRDNAKNTVYLQMNSLKPEDTAVYYCAAERYASGLVYGYDYWGQGTQVTVSS	high polyreactivity
QVQLVESGGGLVQAGGSLRLSCAASGSIFHVNAMGWYRQAPGKERELVADISKRGASTYYADSVKGRFTISRDNAKNTVYLQMNSLKPEDTAVYYCAARVVTPRRQWYTYDYWGQGTQVTVSS	high polyreactivity
QVQLVESGAGLVQAGGSLRLSCAAYGFIFRTNAMGWYRQAPGKERELVAAISNSGGRTYYADSVKGRFTLSRDNSKNTVYLQMNSLKPEDTAVYYCAAVLWYDIYYGGDYWGQGTQVTVSS	high polyreactivity
QVQLVESGGGLVQAGGSLRLSCAASGRIFKIYAMGWYRQAPGKERELVAAISRGGRTYYADSVKGRFTISRDNAKNTVYLQMNSLKPEDTAVYYCAADLLISPEFYYWGQGTQVTVSS	high polyreactivity
QVQLVESGGGLVQAGGSLSLSCAASGRIFQPYAMGWYRQAPGKERELVARITSGGSTYADSVKGRFTISRDNAKNTVYLQMNSLKPEDTAVYYCAVRFPWYYRGYAYDYWGQGTQVTVSS	high polyreactivity
QVQLVESGGGLVQAGGSLRLSCAASGRIFGYIAMGWYRPAPGKERELVAAISWSGGSTYYADSVKGRFTISRDNAKNTVYLQMNSLKPEDTAVYYCAADSQDGYFYWGQGTQVTVSS	low polyreactivity
